# Measurements taken from patent publication US12252714B2, “Halogenation of complex organic compounds” (REGENTS OF THE UNIVERSITY OF MICHIGAN, priority 2018, dated 2025).
# Where a chain is given by its changes, count along the chain named. Names and notes keep the numbering of the source. Read-outs that look alike come from different tables or passages of the source.
# B1: Rdc2: eukaryotic FDH Rdc2, literature comparison (protein, UniProt B3FWT7 22-519, looked up)
# Flavin-dependent halogenase …: AAALAREGNDVVLLEADQHPRYHIGESMLPSLRPLLRFIDLEDKFDAHGFQKKLGAAFKLTSKREGSHGPRGYSWNVVRSESDEILFNHARESGAQAFQGIKINAIEFEPYEEEYPNGEKVANPGKPTSAKWSSKDGSSGDIAFKYLVDATGRIGIMSTKYLKNRHYNEGLKNLAIWGYYKNNIPWAQGTPRENQPFFEGMRDGAGWCWTIPLHNGTVSVGAVMRKDLFFEKKKSLGENATNTQIMAECMKLCPTIGELLAPAELVSDIKQATDYSYSATAYAGPNFRIVGDAGCFIDPFFSSGHHLAVAGALAAAVSINASIKGDCTEYEASRWHAKKVDEGYTLFLLVVMAALKQIRMQENPVLSDVDEDGFDRAFQFLRPEAVKKFTKEDVAQTIDFAVHALNNMAELDMDIPEHMINGDKEGENGVTNGNNGAAKTAGLASNMEKLTNDEEKVLNGLRILGKAAPGGTLADFEGTAIDGLMPRLEHGKLGLNKV
# B2: MalA′: flavin-dependent halogenase from M. graminicola, generated by site-directed mutagenesis of malA: L276P/R428P (protein, UniProt L0E155 1-667, looked up, variant L276P R428P)
# Flavin-dependent halogenase …: MAPTPKYTFTERAAAGNLSDAEILNSNNPTGSELPDESDVVVGGAGIHGLIYALHASKYKPNNLKISVIEKNTRPGYKIGESTLPIFYTWCKLHGISAAYLLRLFGLKDGLCFYFLDRENQGQYTDFCSVGAPGLVLASLQIERPMSELLFTILAQRNGVNVYHGREVDFKSTVVQGGGQGNKIAVSRGKYDSTPKTIDSALFVDATGRFRQFCSKKAPRHRFDGWNCNAFWGYFTAPKDESKIPFDLYEGDHTNHLCFPEGWVWVIRLPSWEGSPIANLMDMVTYILECADAGVPGDELPSSEELARMFGLKFQWVTSIGFAVRNDVKYPEDLSAYGTREAEQKFNYFVQKYELLQQFMSNFELIENLYGPGTTWFIRKTLAYQSPVVSGPGWLAIGDACGFTNPLYSPGINVGMSTSTWAAQLSHPIVEIGKSAPADAAESSIRKLLVPYDDYCKSLVPALEQMNRFNYVCYRDTRLGPQVACLWQFFAGIERYLSDVNIETFAHYAIKWVWGAMVPEYQQVAQKCIEHIETVPLDERLPDAMVDELLAFSNRIKSAAVAADDFSLRWDAILRSFDRSLNFVEGKTSRDIYTRQCSGCGAWLQLRPDWKKCHSCGLLGTEPQTAVTFDPPLTAEEEALLYAAWNTAPKYDPSKELKLPTPTRPAA
# B3: S129A/I493S: C9-selective MalA halogenase double mutant (protein, listed as Malbranchea aurantiaca)
# chain: B2 Flavin-dependent halogenase … with S129A, P276L, P428R, I493S
# modifications: MalA (S129A/I493S) protein
# B4: MalA H253A: MalA halogenase variant, His253 substituted with alanine (protein, UniProt L0E155 1-667, looked up, variant H253A)
# Flavin-dependent halogenase …: B2 Flavin-dependent halogenase … with H253A, P276L, P428R
# B5: MalA S129 Å/P85S: C8-selective MalA halogenase double mutant (protein, UniProt L0E155 1-667, looked up, variant S129A P85S)
# Flavin-dependent halogenase …: B2 Flavin-dependent halogenase … with P85S, S129A, P276L, P428R
# B6: D109A: MalA halogenase D109A mutant (protein, listed as Malbranchea aurantiaca)
# chain: B2 Flavin-dependent halogenase … with D109A, P276L, P428R
# modifications: Wild-type MalA protein
# notes: MalA halogenase D109A mutant
# B7: MalA G131S: C9-selective MalA halogenase mutant (protein, UniProt L0E155 1-667, looked up, variant G131S)
# Flavin-dependent halogenase …: B2 Flavin-dependent halogenase … with G131S, P276L, P428R
# B8: MalA H253F: MalA halogenase variant, His253 substituted with phenylalanine (protein, UniProt L0E155 1-667, looked up, variant H253F)
# Flavin-dependent halogenase …: B2 Flavin-dependent halogenase … with H253F, P276L, P428R
# B9: E494D: MalA halogenase variant, Glu494 substituted with aspartate (protein, listed as Malbranchea graminicola)
# chain: B2 Flavin-dependent halogenase … with E494D
# modifications: Wild-type MalA' protein
# notes: MalA halogenase variant, Glu494 substituted with aspartate
# B10: MalA F489H: MalA halogenase variant, Phe489 substituted with histidine (protein, UniProt L0E155 1-667, looked up, variant F489H)
# Flavin-dependent halogenase …: B2 Flavin-dependent halogenase … with P276L, P428R, F489H
# B11: MalA K108A: MalA halogenase mutant of the catalytic lysine Lys108 (protein, UniProt L0E155 1-667, looked up, variant K108A)
# Flavin-dependent halogenase …: B2 Flavin-dependent halogenase … with K108A, P276L, P428R
# B12: MalA W263A: MalA flavin-dependent halogenase variant with W263A substitution (protein, UniProt L0E155 1-667, looked up, variant W263A)
# Flavin-dependent halogenase …: B2 Flavin-dependent halogenase … with W263A, P276L, P428R
# B13: E494Q: MalA halogenase variant, Glu494 substituted with glutamine (protein, UniProt L0E155 1-667, looked up, variant E494Q)
# Flavin-dependent halogenase …: B2 Flavin-dependent halogenase … with P276L, P428R, E494Q
# B14: E494A: MalA halogenase variant, Glu494 substituted with alanine (protein, UniProt L0E155 1-667, looked up, variant E494A)
# Flavin-dependent halogenase …: B2 Flavin-dependent halogenase … with P276L, P428R, E494A
# B15: MalA W265A: MalA flavin-dependent halogenase variant with W265A substitution (protein, UniProt L0E155 1-667, looked up, variant W265A)
# Flavin-dependent halogenase …: B2 Flavin-dependent halogenase … with W265A, P276L, P428R
# Tests used:
# [1] = cited from earlier work
# [2] = MalA biochemical activity assays, mutants versus wild-type MalA; conditions: for site-selectivity of chlorination: chlorination of compound 2, C8 versus C9; for site-selectivity profile of bromination: bromination of compound 2
# Procedure: Biochemical activity assays were performed in a 100 μL volume with the following components: 18 μM MalA, 54 μM HpaC flavin reductase,^3 100 μM FAD, 50 mM NaCl, 250 μM substrate, 5 mM NADH, and brought to total volume with reaction buffer (same as storage bufferNaBr). The chlorination reactions proceeded for 20 minutes and the bromination reactions proceeded overnight. The reactions were extracted with ethyl acetate ([…], in triplicate) and dried down under nitrogen gas. The dried extract was resuspended in LC/MS grade methanol to a concentration of around 10 μM for LC/MS analysis. High resolution mass spectrometry was performed using electrospray ionization on an Agilent quadrupole time-of-flight spectrometer (Q-TOF 6500 series). Biochemical activity was monitored via the following HPLC method using acetonitrile and water: 65% acetonitrile for 5 minutes, gradient over 10 minutes to 95% acetonitrile, 95% acetonitrile for 5 minutes, gradient over 2 minutes to 65% acetonitrile, 65% acetonitrile for 11 minutes to re-equilibrate with a flow rate of 0.3 mL/minute, monitoring at 240 nm on a Phenomenex Lux cellulose-3, cellulose Tris (4-methylbenzoate) 250×4.6 mm column.
molecule,measurement,setting,value
B1,catalytic efficiency,[1]; initial chlorination reaction,2.93 min⁻¹ mM⁻¹
same,catalytic efficiency,[1]; second chlorination reaction,0.11 min⁻¹ mM⁻¹
B2,halogenase activity relative to wild-type MalA,[2]; chlorination of compound 2,essentially identical to MalA
B3,site-selectivity of chlorination,[2],C9-selective
B4,site-selectivity profile of bromination,[2],same product profile as the wild-type MalA
same,site-selectivity of chlorination,[2],selective for producing the C9-chlorinated compound 3
B5,site-selectivity of chlorination,[2],C8-selective
B6,halogenase activity relative to wild-type MalA,[2]; chlorination of compound 2,very low activity
B7,site-selectivity of chlorination,[2],C9-selective
B8,site-selectivity profile of bromination,[2],same product profile as the wild-type MalA
same,site-selectivity of chlorination,[2],selectivity for producing the C8-chlorinated compound 4
B9,halogenase activity relative to wild-type MalA,[2]; chlorination of compound 2,slight activity
B10,halogenase activity relative to wild-type MalA,[2]; chlorination of compound 2,significantly decreased
B11,halogenase activity relative to wild-type MalA,[2]; chlorination of compound 2,inactive
B12,production of compound 1 relative to wild-type MalA,[2]; chlorination of compound 2,5%
same,production of compound 3 relative to wild-type MalA,[2]; chlorination of compound 2,50%
same,production of compound 4 relative to wild-type MalA,[2]; chlorination of compound 2,60%
B13,halogenase activity relative to wild-type MalA,[2]; chlorination of compound 2,inactivated
B14,halogenase activity relative to wild-type MalA,[2]; chlorination of compound 2,inactivated
B15,halogenase activity relative to wild-type MalA,[2]; chlorination of compound 2,drastic decrease in activity
